The series is described as follows: yeast display, Sf9 membrane polyspecificity reagent, FACS + sequencing; frameworks hold sequencing errors. The gist of the method: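 Galactose induction of a Saccharomyces cerevisiae BJ5465 synthetic nanobody display library ran 36–48 hours. The cells were then stained for 1 hour at 4 °C with 10% biotinylated, detergent-solubilized Sf9 membrane reagent, pulled down on streptavidin microbeads and FACS-sorted into low and high (top ~1%) gates on expression and reagent-binding fluorescence. Labels for polyreactivity follow the gate of origin.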
In the case of “QVQLVDSGGGLVQAGGSLRLRCAASGSTFRRYAMGWYRQAPGKERELVAAISNRDGSTYYADSVKGRFTISRDNAKNTVYLQMNSLKADDTAVYYCNAYGYGDYSFLKYRFEYDYWGQGTQVTVSS”, the “polyreactivity (PSR sort gate)” value is recorded as “low polyreactivity”.

As for “QVQLVDSGGGLVQAGGSLRLRCAASGSTYHYAMAGYRQAPGKERELVASITWRGDTTYYADSVKARFTISRDNAMNTVYFHMNSLKPEDSAVYYCAAYVRRCFAWGQGTQVTVSS”, the “polyreactivity (PSR sort gate)” value is listed as “high polyreactivity”.

Take “QVQLVDSGGGLVQAGGSLRLSCAASASTFEYYTMGWYRHAPGKERQLVASIRSSGTSTYYADCVKGRFTISRDNAKNTVYLQMNSLKPEDTAVSYWAATVLSIYVSSYGFWGQGTQVTVSS”: the “polyreactivity (PSR sort gate)” value was “high polyreactivity”.

For “QVQLVDSGGGLVQAGGSLRLSCAASGFIFDVYAMGGYRQAPGKERQLVAAISVSSTNYADSVKGRFTISRDNAKNTVYLQMNSLKPEDTAVSYCAADTYTYFLASYLYGQYDYWGQGTQVTVSW”, the “polyreactivity (PSR sort gate)” value is reported as “low polyreactivity”.

For the sequence “QVQLVDSGGGLVQAGGSLRLSCAASGFIFIRNARGWYRQAPGKESQLVAAIRYRGGNTYYADSVKGRFTISRDNAKNTVYLQMNSLKPEDTAVYYCNAAGSYYTRSDSGYWGQGTQVTVSS”, the “polyreactivity (PSR sort gate)” value is listed as “high polyreactivity”.

Consider “QVQLVDSGGGLVQAGGSLRLSCAASGFIFPVYTMGWYRQAPGKERELVAAITQIGGSTQYADSVKGRFTISRDNAKNTVYLQMNSLKPEDTAVYYCAVDYDSYWYGTYVNEYVYWGQGTQVTVSS”, for which the “polyreactivity (PSR sort gate)” value was “low polyreactivity”.

Take “QVQLVDSGGGLVQAGGSLRLSCAASGFIFTDYAMGLYRQAPGQEREFVAAIDWSGGNTYYADSVTGRFTISRDNAKNTVYLQMNSLKPEDTAVFYCAASGSAREYVYWGQGTQVTVSS”: the “polyreactivity (PSR sort gate)” value is recorded as “low polyreactivity”.

“QVQLVDSGGGLVQAGGSLRLSCAASGFIFWYYAMGWYRQEPRKERELVAAITSGGNTNYADSVKGRFTISRDNAKNTVYLQMNSLKPEDTAVYYCATGRASGREHDSWGQGTQVTVSS”: the “polyreactivity (PSR sort gate)” value is recorded as “low polyreactivity”.

In the case of “QVQLVDSGGGLVQAGGSLRLSCAASGFIFYKYAMGWYRQATGKERELVAAISKRGGSTYYADSVKGRFTISRDNAKNTVYLQMNSLKPEYTAVYDCATDGGYSDTVRYVASDYWGQGTQVTVSS”, the “polyreactivity (PSR sort gate)” value is “high polyreactivity”.

For “QVQLVDSGGGLVQAGGSLRLSCAASGFILYFNAMGWYRQAHGKERELVAAISRGDGSTYADSVKGRFTISRDNAKNTVYLQMNSLKAQDTAVYYCNAGLGVVVTHYVGYGYDSWGQGTQVTVSS”, the “polyreactivity (PSR sort gate)” value is “low polyreactivity”.

As for “QVQLVDSGGGLVQAGGSLRLSCAASGFNFASYALGWYRPAPGKERELVAAISQSGGRTYYADSVKGRFTISRDNANNTVYLQMNSLKPEDTAVYYCAAPSYRYIYYSPGTGLGYWGQGTQVTVSS”, the “polyreactivity (PSR sort gate)” value is “high polyreactivity”.

“QVQLVDSGGGLVQAGGSLRLSCAASGFTFTPNAMGWYRQAPGTERELVAAISRRGGSTYYADSVKGRFTISRDNAKNTVYLQMNSLKPEDTAVYYCAASSSGRGGYWGQGTQVTVSS”: the “polyreactivity (PSR sort gate)” value is “high polyreactivity”.

For the sequence “QVQLVDSGGGLVQAGGSLRLSCAASGFTIPYYAMGWYRQAPGKERELVAAISSGGRTNYADSVKGRFTISRDNAKNTVYLPMNSLKPEDTAVYYCATRSYVFAWEFYYWGQGTQVTVSS”, the “polyreactivity (PSR sort gate)” value is on record as “high polyreactivity”.

Consider “QVQLVDSGGGLVQAGGSLRLSCAASGGILKCYYMGRYRQATGKEMEFVSPITWSAGSTYYADSVKGRFTISRDNAKNTVYLQMNSLKPEDTAVHYCNVDWYPRGPHTVVFYDVSPYDYWGQGTQVTVSS”, for which the “polyreactivity (PSR sort gate)” value is “high polyreactivity”.

Turning to “QVQLVDSGGGLVQAGGSLRLSCAASGIILYPYAMGWYRQAPGKERELVAAISWSGGSTYYADSVKGRFTISRDNAKNTVYLQMNSLKPEDTAVYYCAARPRRRYYGYDSWGQGTQVTVSS”, the “polyreactivity (PSR sort gate)” value was “high polyreactivity”.

On to “QVQLVDSGGGLVQAGGSLRLSCAASGITFNSYVMGLYRQAPGKERELVAVISRGGGITYYADSVKGRFTISRDNAKNTVYLQMNSLKPEDTAVSYCAADHTHGYVLYYNDNYWGQGTQVTVSS”, for which the “polyreactivity (PSR sort gate)” value is “high polyreactivity”.

Consider “QVQLVDSGGGLVQAGGSLRLSCAASGITFRTYAMGWYRQEPGKERELVAAISGSSTSTYYADSVKGRFTISRDNAKNTVYLQMNSLKPEDTAVYYCAAGYRVSVYRYYYWGQGTQVTVSS”, for which the “polyreactivity (PSR sort gate)” value is recorded as “high polyreactivity”.

Regarding “QVQLVDSGGGLVQAGGSLRLSCAASGITFYYYAMGRYIQAPGKERELVAAISWSGGSTYYADSVKGRFTISRDNAKNTVYLPMNSLIPEDTAVYYCAATPYQYHDGGYWGQGTQVTVSS”, the “polyreactivity (PSR sort gate)” value was “high polyreactivity”.

For the sequence “QVQLVDSGGGLVQAGGSLRLSCAASGITFYYYAMGWYRQAAGKERELVAAISSRGGSTYYADSVKGRFTISRDNAKNTVYLQRNSLKPEDTAVYYCAALYGVSEEDDYWGQATQVTVSS”, the “polyreactivity (PSR sort gate)” value is recorded as “high polyreactivity”.

In the case of “QVQLVDSGGGLVQAGGSLRLSCAASGITFYYYAMGWYRQAPGKERELVAAISSRGGSTYYADSVKGRFRISRDNAKNTVYLQMNSLNPEDTAVYYCAAGRVGAWTFDYWGEGTQVTVSS”, the “polyreactivity (PSR sort gate)” value was “high polyreactivity”.

On to “QVQLVDSGGGLVQAGGSLRLSCAASGITIEYNDMGWYRQAPGTERELVAAISLSSGSTYYADSVKGRFTISRDNAKNTVYLQMNSLKPEDTAVYYCNADTIIYEGGYWGQGTQVTVSS”, for which the “polyreactivity (PSR sort gate)” value is “low polyreactivity”.

With “QVQLVDSGGGLVQAGGSLRLSCAASGITIVYYAMGWNRQAPGKERELVAAITRGANTYYADSVKGRFTISRDNAKNTVYLQMNSLKPEDTAVYYCAADGWVGAWWYVLDVRYDYWGQGTQVTVSS”, the “polyreactivity (PSR sort gate)” value is reported as “low polyreactivity”.

As for “QVQLVDSGGGLVQAGGSLRLSCAASGLIFDVYAMGWYRQAPGKERELVAVISSDGGTYYADSVKGLFTISRDNAKNTVYLQMISLKPEYTAVYYCAARRWREGARYSYWGQGTQVTVSS”, the “polyreactivity (PSR sort gate)” value is “high polyreactivity”.

Consider “QVQLVDSGGGLVQAGGSLRLSCAASGLNFVINAMGWYRQAPGKERELDATISSGVSTNYADSVKGRFTISRDNAKNTVYLQMNSLKPEDTAVYDCNKGQTVSRGYRLYERYDYWGQGTQVTVSS”, for which the “polyreactivity (PSR sort gate)” value is “low polyreactivity”.

In the case of “QVQLVDSGGGLVQAGGSLRLSCAASGLTFTRYAMGWYRQAPGKERELVAAISKNGGSTYYADSVKGRFTISRDNAKNTVYLQMNSLKPAETAVYYCAARRYGPGRYPEDYWGQGTQVTVSS”, the “polyreactivity (PSR sort gate)” value was “high polyreactivity”.

“QVQLVDSGGGLVQAGGSLRLSCAASGLTIPVYTMVWYRHAPGTEREFVAAITYNGGRTYYADCVKGRFTISRDNAKNTVYLQMNSLKPEDTAVYYCAAEYGTYFVRYYAGASYRYGYWGQGTQVTVSS”: the “polyreactivity (PSR sort gate)” value is reported as “low polyreactivity”.

Take “QVQLVDSGGGLVQAGGSLRLSCAASGNTFSGNTMGWYRQAPGKERELVAAIRFTGGSTTYADSVKGRFTISRDNAKNTVYLQMNSLKPEDTAVYYCNTDWVSFRSIYHEYDYWGQGTQVTVSS”: the “polyreactivity (PSR sort gate)” value is recorded as “low polyreactivity”.

Take “QVQLVDSGGGLVQAGGSLRLSCAASGRIFFPNGMGWYRQAPGKERELVATISRIGGSTYYADSVKGRFTISRDNAMNTVYLQRNSLKPEDTAVYYCAAQYSYGVYWTLPYGYNYWGQGTQVTVSS”: the “polyreactivity (PSR sort gate)” value is on record as “low polyreactivity”.

For the sequence “QVQLVDSGGGLVQAGGSLRLSCAASGRIFGSYVMGWYRQAPGKERELVAAITDGGTTYADSVKGRFTISRDNAKNTVYLQMNSLKPEDTAVYYCAADLYDWPLAWWEYYYWGQGTHVTVSS”, the “polyreactivity (PSR sort gate)” value was “low polyreactivity”.

“QVQLVDSGGGLVQAGGSLRLSCAASGRIFPGKVMGWYRQAPGKERELVAAISSSGGSTYYADSVKGRFTISRDNAKNTVYLQMNSLKPEDTAVYYCAADSSDWPYDYWGQGTQVTVSS”: the “polyreactivity (PSR sort gate)” value is “low polyreactivity”.
